# Data published in the nanobody polyreactivity screen of Harvey et al. (2022).
# Assay: yeast display, Sf9 membrane polyspecificity reagent, FACS + sequencing; frameworks hold sequencing errors
# Outline: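 Genes from sorted yeast were amplified by colony PCR, read by MiSeq 2 × 250 sequencing and filtered on CDR length. These cells carried a synthetic nanobody library in Saccharomyces cerevisiae BJ5465 and were sorted by FACS into low and high (top ~1%) gates on anti-HA and streptavidin fluorescence. Polyreactivity is labelled according to the gate of origin.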
row,Sequence,polyreactivity (PSR sort gate)
1,QVQLVESGGGLVQAGGSLRLSCAASGSIFAKYAMGWYRQAPGKERELVAAITSSGDSTNYADSVKGRFTISRDNAKNTVYLQMNSLKPEDTAVYYCAADDQYGYVYYAFWGYDYWGQGTQVTVSS,low polyreactivity
2,QVQLVESGGGLVQAGGSLRLSCAASGSIFAKYPMGWYRQAPGKERELVAAISSGGSTYYADSVKGRFTISRDNAKNTVYLQMNSLKPEDTAVYYCNKPYGKETRYTFNVWYEYNYWGQGTQVTVSS,low polyreactivity
3,QVQLVESGGGLVQAGGSLRLSCAASGSIFANNAMGWYRQAPGKERELVAAIDWSAASTYYADSVKGRFTISRDNAKNTVYLQMNSLKPEDTAVYYCNARALGGGHIGFNHYVYGFGYWGQGTQVTVSS,low polyreactivity
4,QVQLVESGGGLVQAGGSLRLSCAASGSIFARNAMGWYRQAPGTERELVASITWSGASTYYADSVKGRFTMSRDNATNTVSLQLNSLKPDDTAVYYCAATAQKLSLDYSSYEYWGQGTQVTVSS,low polyreactivity
5,QVQLVESGGGLVQAGGSLRLSCAASGSIFARYAIGWYRQAPGKERELVAAISSDGSTYYADSVKGRFTISRDNAKNTVYLQMNSLKPEDTAVYYCAARAFYYAGDWYGYWGQGTQVTVSS,high polyreactivity
6,QVQLVESGGGLVQAGGSLRLSCAASGSIFARYTMGWYRQAPGKERELVASITWRTGSTYYADSVKGRFTISRDNAKNTVYLQMNSLKPEDTAVYYCNKAYTITQYGWIPLGYWGQGTQVTVSS,high polyreactivity
7,QVQLVESGGGLVQAGGSLRLSCAASGSIFASNALGWYRQAPGKERELVAAIDTSGGSTYYADSVKGRFTISRDNAKNTVYLQMNSLKPEDTAVYYCNTDWRDEYYPRYRASKFDYWGQGTQVTVSS,low polyreactivity
8,QVQLVESGGGLVQAGGSLRLSCAASGSIFASNAMGWYRQAPGKDTELVAAITYSGGSTYYADSVKGRFTISRDNAKKTVDLQMNSLKPEDTAVYYCAADVSVPQRYDYWGQGTQVTVSS,low polyreactivity
9,QVQLVESGGGLVQAGGSLRLSCAASGSIFASNAMGWYRQAPGKEREFVAAITWRTDRTHYADSVKGRFTISRDNAKNTVYLQMNSLKPEDTAVYYCAADTWFYRFYYWGQGTQVTVSS,high polyreactivity
10,QVQLVESGGGLVQAGGSLRLSCAASGSIFASNAMGWYRQAPGKERELVAAINSGDSTNYADSVKGRFTISRDNAKNTVYLQMNSLKPEDTAVYFCARGLEERYDYWGQGTQVTVSS,low polyreactivity
11,QVQLVESGGGLVQAGGSLRLSCAASGSIFASYAMGWYRQAPGKERELVAAIRSSGGRTYYADSVKGRFTISRDNAKYTVYLQMYSLKPEDTAVYYCNDRRPGYRPYGYDYWGQGTQVTVSS,high polyreactivity
12,QVQLVESGGGLVQAGGSLRLSCAASGSIFASYAMGWYRQAPGKERELVAAITTSGGRTYYADSVKGRFTISRDNAKNTVYLQMNSLKPEDTAVYYCARRPRGGRYAYYSWGQGTQVTVSS,high polyreactivity
13,QVQLVESGGGLVQAGGSLRLSCAASGSIFASYAMGWYRQAPGKERELVATITQSGGRTYYADSVKGRFTISRDNAKNTVYLQMNSLKPEDTAVYYCARRYWGGGYRMGYWGQGTQVTVSS,high polyreactivity
14,QVQLVESGGGLVQAGGSLRLSCAASGSIFASYVMGWYRQAPGKERELVAAITSRGTSTYYADSVKGRFTISRDNAKNTVYLQMNSLKPEDTAVYYCAARLYGSAPQHEYWGQGTQVTVSS,low polyreactivity
15,QVQLVESGGGLVQAGGSLRLSCAASGSIFAVNAMGWYRPAPGKERELVAAITSGGITYYADSVKGRFTISRDNAKNTVYLQMNSLKPEDTAVYYCATVFSVQGWYFGMNYWGQGTQVTVSS,low polyreactivity
16,QVQLVESGGGLVQAGGSLRLSCAASGSIFAVNAMGWYRQAPGKERELVAAIDWSDGITYYADSVKGRFTISRDNAKNTVYLQMNSLKPEDTAVYYCAADATAYGWYVEQFSFYDNDYWGQGTQVTVSS,high polyreactivity
17,QVQLVESGGGLVQAGGSLRLSCAASGSIFAVYAMGWYRQAPGKERELVAASSTDYAESVKGRFTISRDNAKNTVFLQLNRLKPEDTAVYYCAKVGFGIPGGFYYWGQGTQVTVSS,low polyreactivity
18,QVQLVESGGGLVQAGGSLRLSCAASGSIFAVYAMGWYRQAPGKERELVAVITRSGGSTYYADSVKGRFTISRDNAKNTVYLQMISLKPEDTAVYYCAARTGYGYTRYEYWGQGTQVTVSS,high polyreactivity
19,QVQLVESGGGLVQAGGSLRLSCAASGSIFAVYVMGWYRQAPGKDRELVAAIRRGGTTTYADSVKGRFTISRDNAKTTVYLQMNSLKPEDTAVYYCAADSYARYLYSYYSPYDYWGQGTQVTVSS,low polyreactivity
20,QVQLVESGGGLVQAGGSLRLSCAASGSIFAWYALGWYRQAPGKERELVADITQSGGSTYYADSVKGRFTISRDNAKNTVYLQMNSLKPEDTAVYYCVDYWYNYLQSGWEDDYWGQGTQVTVSS,low polyreactivity

row,Sequence,polyreactivity (PSR sort gate)
1,QVQLVESGGGLVQAGGSLRLSCAASGSIFAYAMGWYRKAPGKEMELVAAISGGSTYYADSVKGRFTISRDNAKNTVYLQMNSVKPEDTAVYYCAADLDDERYYWGQGTQVTVSS,low polyreactivity
2,QVQLVESGGGLVQAGGSLRLSCAASGSIFAYAMGWYRQAHGKERELVAAISGGSTYYADSVKGRFTISRENAKNTVYLQMNSLKPEETAVYYCAADLDDERYYWGQGTQVTVSS,low polyreactivity
3,QVQLVESGGGLVQAGGSLRLSCAASGSIFAYNAMGWYRQAPGKEREFVASISSNGDSTFYADSVKGRFTISRDNAKNTVYLQMNSLKPEDTAVYYCAADVIAWDGYLWQRYDYWGQGTQVTVSS,low polyreactivity
4,QVQLVESGGGLVQAGGSLRLSCAASGSIFAYNAMGWYRQAPGKERELVAANSYSGASTYYADSVKGRFTISRDNAKNTVYLQMNSLKPEDTEVYYCAATSRRRGTKGYWQVWPRFDYWGQGTQVTVSS,high polyreactivity
5,QVQLVESGGGLVQAGGSLRLSCAASGSIFAYYAIGWYRQAPGKEREFVAAISISGGSTNYADSVKRRFTISRDNAKNTVYLQMNSLKPEDTAVYSCAATSRWSSFGFYGQYNFWGQGTQVTVSS,high polyreactivity
6,QVQLVESGGGLVQAGGSLRLSCAASGSIFAYYAMGWYREAPGKERELVADITSSGGITYSADSVKGRFTISRDNAKNTVYLLMNSLKPEDTAGYYCNADSWAIGGGSYPYDYWGQGTKVTVSS,low polyreactivity
7,QVQLVESGGGLVQAGGSLRLSCAASGSIFAYYAMGWYRQAPGKERELVAAISRRGGSTYYADSVKGRFTISRDNAKNTVYLQMNSLKPEDTAVYYCAADGGGTTSLEYGNDYWGQGTQVTVSS,high polyreactivity
8,QVQLVESGGGLVQAGGSLRLSCAASGSIFAYYAMGWYRQAPGKERELVAAITSGDSTYYADSVKGRFTISRDNAKNTVYLQMNSLKPEDSAVYYCAADVSWRSNWYDYWGQGTQVTVSS,low polyreactivity
9,QVQLVESGGGLVQAGGSLRLSCAASGSIFAYYVMGWYRKAPGKERELVAAITSVGSTNYADSVKGRFTISRDNAKNTVYLQMNCLKPEDTAVYSCAAVQYQASYYYWGQGTQVTLSS,low polyreactivity
10,QVQLVESGGGLVQAGGSLRLSCAASGSIFDANAMGWYRQAPGKERELVATIRIGGSTNYADSVKGRFRISRDNAKNTVYLQMYSLKPEDTAGYYCAASRQFRSRRFYYWGQGTQVTVSS,high polyreactivity
11,QVQLVESGGGLVQAGGSLRLSCAASGSIFDDNAMGWYRQAPGKERELVAAISANDGSTYYADSAKGRFTISRDNAKNTVYLQMNTLKPEDTAVYYCAAERYLSFDRYLYEYYYWGQGTQVTVSS,low polyreactivity
12,QVQLVESGGGLVQAGGSLRLSCAASGSIFDDNAMGWYRQAPGKERELVATINYGGGRTSYADSVKGRSTISRDNAKNTVYLQMNSLKPEDTAVYYCAADPRQKEDYWGQGTQVTVSS,low polyreactivity
13,QVQLVESGGGLVQAGGSLRLSCAASGSIFDDYAMGGYRQAHGKERELVAAISSSGTSTYYADSVKGRFTISRDNAKNTVYLQMNCLKPEDTAVYYCAARSAILKSAYLMDYWGQGTQVTVSS,low polyreactivity
14,QVQLVESGGGLVQAGGSLRLSCAASGSIFDDYAMGWYRQAPGKERELVAAISSSGTSTYYADSVKGRFTISRDNAKNTVYLQMNSLKPEDTAVYYCAKYAGVYEYDYWGQGTQVTVSS,low polyreactivity
15,QVQLVESGGGLVQAGGSLRLSCAASGSIFDDYAMGWYRQSPGQERELVAAISWSGGSTYYADSVKGRFTISRDNAKNTDYLQMNSLKPDDTAVYYCAGYDYDYLYGEYYWGQGTQVTVSS,low polyreactivity
16,QVQLVESGGGLVQAGGSLRLSCAASGSIFDFNAMGWYRQVPGKERELVAAITSGGSTNYADSVKGRFTISRDNAKNTVYLQMNSLKPEDTAVYYCAARPARGASQGGYVRPWWYDYWGQGTQVTVSS,low polyreactivity
17,QVQLVESGGGLVQAGGSLRLSCAASGSIFDFYAMGWYRQAPGKERELVAAITWSGDTTYYADSVKGRFTISRDNAKNTVYLQMNCLKPEDTAVYYCAAEGWYWWYGRDYYWGQGTQVTVSS,high polyreactivity
18,QVQLVESGGGLVQAGGSLRLSCAASGSIFDFYAMGWYRQAPGKERELVADISSSDGSTSYADSVKGRFTISRDNAKNTVYLQLNSLKPEDTAVYYCAASQLFGWFPYDYWGQGTQVTVSS,high polyreactivity
19,QVQLVESGGGLVQAGGSLRLSCAASGSIFDFYAMGWYRQAPGKERESVAAISWSGGSTYADSVKGRFTISRDNAKNTVYLQMNSLKPEDTAVYYCAARWGTYWGVLGGDPDIDYDYWGQGTQVTVSS,low polyreactivity
20,QVQLVESGGGLVQAGGSLRLSCAASGSIFDFYDMGWYRPAPGKERELVAAISSGGGSTYYADSVKGRFTISRDNAKNTVYLQMNSLKPEDTAVYYCAADLKGNYYLGIARYVLYYWGQGTQVTVSS,low polyreactivity
